Data reported in the RNAGym collection of RNA variant scans (doi:10.1073/pnas.2313332121).
Variants at the floor of the assay were thinned out.

B1: TPR 5TU (parent)
chain: GGAUCUUCUCGAUCUAACAAAAAAGACAAAUCUGCCACAAAGCUUGAGAGCAUCUUCGGAUGCAGAGGCGGCAGCCUUCGGUGGCGCGAUAGCGCCAACGUUCUCAACUAUGACACGCAAAACGCGUGCUCCGUUGAAUGGAGUUUAUCAUG

Variants of: B1
Test: polymerase ribozyme fitness, log enrichment relative to wild type (log ratio); higher = more active; in vitro selection for triplet polymerase activity
Method in brief: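 After PCR construction and transcription, each subunit's mutant library from a heterodimeric triplet polymerase ribozyme was annealed with a biotinylated primer, the partner subunit and triplets. Incubation was frozen, at −7 °C, and extended constructs were gel-excised, bound to streptavidin beads and amplified by RT-PCR, in one selection round done in triplicate. Fitness is the logarithm of a genotype's enrichment divided by that of the wild type, from inverse-variance-weighted replicate averages of Illumina-sequenced inputs and outputs. The base of the logarithm is 2, and genotypes needed ≥10 input reads and ≥1 read per output.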

First: GGAUCUUCUCGAUCUAACAAUAAAGACAAAUCUGCCACAAAGCUUGAGAGUAUCUUCGGAUGCAGAGGCGGCAGCCUUCGGUGGCGCGAUAGCGCCAACGUUCUCAACUAUGACACGCAAAACGCUUGCUCCGUUGAAUGGAGUUUAUCAUG [A21U C51U G126U]
Second: GGAUCUUCUCGAUCUAACAAUAAAGACAAAUCUGCCAAAAAGCUUGAGAGCAUCUUUGGAUGCAGAGGCGGCAGCCUUCGGUGGCGCGAUAGCGCCAACGUGCUCAACUAUGACACGCUAAACGCGUGCUCCGUUGAAUGGAGUUUAUCAUG [A21U C38A C57U U102G A119U]
The “polymerase ribozyme fitness (log ratio)” value of the first is higher: 0.375 for the first, ≤ -4.2 for the second.

First: GGAUCUUCUCGAUCUAACAAUAAAGACAAAUCUGCCACAAAGCUUGAGAGCAUCUUCGGCUGCAGAGGCGGCAGCCUUCGGUGGCGAGAUAGCGCCAGCCUUCUCAACUAUGACACGCAAAACGCGUGCUCCGUUGAAUGGAGUUUAUCAUG [A21U A60C C87A A98G G100C]
Second: GGAUCUUCUCGAUCUAACAAUAAAGACAAAUCUGCCACAAAGCUUGAGAGCAUCUUCGGAUGCAGAGGCGGCAGACUUCGGUGGCGCGAUAGCGCCAACGUUCUCAACUAUGACACGCAAAUCGCGUGCUCCGUUGAAUGGAGUUUAUCAUG [A21U C75A A122U]
The “polymerase ribozyme fitness (log ratio)” value of the first is lower: ≤ -4.2 for the first, -3.97 for the second.

GGAUCUUCUCGAUCUAACAAUAAAGACAAAUCUGCCACAAAGCUUGAGAGCAUCUUAGGAUGCAGAGGCGGCAGCCUUCGGUGGCGCGUUAGCGCCAACGUUCUCAACUAUGACACGCAAAACGCGUGCUCCGUUGAAUGGAGUUUAUCAUG [A21U C57A A89U] and GGAUCUUCUCGAUCUAACAAUAAAGACAAAUCUGUCACAAAGCUUGAGAGCAUCUUCGGAUGCAGAGGCGGCAGCCUUCGGUGGCGCGAUAGCGCCAACGUUCUCAACUAUGACACGCAAAACGCGUGUUCCGUUGAAUGGAGUUUAUCAUG [A21U C35U C129U] are within 0.2 log units of each other in “polymerase ribozyme fitness (log ratio)” value: -0.571 for the first, -0.6 for the second.

GGAUCUUCUCGAUCUAACAAUAAAGACAAAUCUGCCACAAAGCUUGAGAGCAUCUUCGGAUGCCGAGGCGGCAGCCUUCGGUGGCGCGAUAGCGCCAACGUUCUCAACUAUGACACGCAAAACGCGUGCUCCGUUGAAUGGAGUGUAUCAUG [A21U A64C U145G] and GGAUCUUCUCGAUCUAACAAUAAAGACAAAUCUGCCAAAAAGCUUGAGACCAUCGUCGGAUGCAGAGGAGGCAGCAUUCAGUGGCGCGAGAGCGCCAACGUUCUCAACUAUGACACGCAAAACGCGUGCUCCGUUGAAUGGAGUUUAUCAUG [A21U C38A G50C U55G C69A C76A G80A U90G] cannot be ordered by “polymerase ribozyme fitness (log ratio)” value: ≤ -4.2 for the first, ≤ -4.2 for the second.

Going from GGAUCUUCUCGAUCUAACAAUAAAGACAAAUCUGCCACAAAGCUUGAGAGCAUCUUCGGAUGCAGAGGCGGCGGCCUUCGGUGGCGCGAUAGCGCCAACGUUCUCAACUAUGACACGCAAAACGCGUGGUCCGUUGAAUGGAGUUUAUCAUG [A21U A73G C129G] to GGAUCUUCUCGAUCUAACAAUAAAGACAAAUCUGCCACAAAGCUUGAGAGCAUCUUCGGAUGCAGAGGCGGCAGCCUUCGGUGGCGCGAUAGCGCCAACGUUCUCAACUAUGACACGCAAAACGCGUGCUCCGUUGAAUGGUGUUUAUCAUG [A21U A142U], the “polymerase ribozyme fitness (log ratio)” value rises from -3.49 to -0.552.

Going from GGAUCUUCUCGAUCUAACAAUAAAGACAAAUCUGCCACAAAGCUUGAGAGCAUCUUCGGAUGUAGAGGCGGCAGCCUUCGGUGACGCGAUAGCGCCAACGUUCUCAACUAUGACACGCAAAACGCGUGCUCCGUUGAAUGGAGUUUAUCAUG [A21U C63U G84A] to GGAUCUUCUCGAUCUAACAAUAAAGACAAAUCUGCCACAAAGCUUGAGAGCGUCUUCGGAUGCAGCGGCGGCAGCCUUCGGUGGCGCGAUAGCGCCAACGUUCUCAACUAUGACACGCAAAACGCGUACUCCGUUGAAUGGAGUUUAUCAUG [A21U A52G A66C G128A], the “polymerase ribozyme fitness (log ratio)” value falls from -0.545 to ≤ -4.2.

GGAUCUUCUCGAUCUAACAAUAAAGACAAAUCUGCAACAAAGCUUGAGAUCAUCAUGGGAUACAGAGUCGGCAGCCUUCGGUGGGGCGAUAGCGCCAACGUUAUCAACUAUGACACGCAAAACGCGUACUCCGUUGAAUGGAGUUUAUCAUG [A21U C36A G50U U55A C57G G62A G68U C85G C103A G128A] and GGAUCUUCUCGAUCUAACAAUAAAGACAAAUAUGCCACAAAGCUUGAGAGCAUCUUCCGAUGCAGAGGCGGCAGCCUUCGGUGGCGCGAUAGCGCCAACGUUCUCAACUAUGACACGCAAAACGCGUGCUCCGUUGAAUGGAGUUUAUCAUG [A21U C32A G58C] cannot be ordered by “polymerase ribozyme fitness (log ratio)” value: ≤ -4.2 for the first, ≤ -4.2 for the second.

Going from GGAUCUUCUCGAUCUAACAAUAAAGACAAAUCUGCCACAAAGCUUGAGAGUAUCUUCGGAUGCAGAGGCGGCAGCCUUCGGUGGCGCGAUAGCGCCAACGUUCUCUACUAUGACACGCAAAACGCGUGCUCCGUUGAAUGGAGUUUAUCAUG [A21U C51U A106U] to GGAUCUUCUCGAUCUAACAAUAAAGACAAAUCUGCCACAAAGUUUGAGAGCAUCUUCGGAUGCAGAGGCGGCAGCCUUCGGUGGCGCGAUAGCGCCAAGGUUCUCAACUAUGACACGCAGAACGCUUGCUCCGUUGAAUGGAGUUUAUCAUG [A21U C43U C99G A120G G126U], the “polymerase ribozyme fitness (log ratio)” value falls from -2.08 to ≤ -4.2.

Going from GGAUCUUCUCGAUCUAACAAUAAAGACAAAUCUGCCACAAAGCUUGAGAGCAUCUUCGGGUGCAGAGGCGGCAGCCUUCGGUGGCGCGAUAGCGCCAACGUUCUCAACUAUGACACGCAAAACGCGUGCUCCGUUGAAUGGAGUUUAUCAUG [A21U A60G] to GGAUCUUCUCGAUCUAACAAUAAAGACAAAUCUGCCACAAAGCUUGAGAGCAUUUUCGGAUGUAGAGACGGCGGCCUUCGGUGGCGCGAUAGGGCCAACGUUCUCAAGUAUGACACGCAAAACGCGUGCUCCGUUGAAUGGAGUUUAGCAUG [A21U C54U C63U G68A A73G C93G C108G U148G], the “polymerase ribozyme fitness (log ratio)” value falls from 0.987 to ≤ -4.2.

For GGAUCUUCUCGAUCUAACAAUAAAGAGAAAUCUGCCACAAAGCUUGAGAGCAUCUUCGGAUGCAGAGGCGGCAGCCUUCGGUGGCGCGAUAGUGCCAACGUUCUCAACUAUGACACGCAAAACGCGUGCUCCGUUGACUGGAGUUUCUCAUG [A21U C27G C93U A138C A147C], the “polymerase ribozyme fitness (log ratio)” value was ≤ -4.2.
